Experimental data from the supplement of paper PMC10567573.

B1: ANKRD40 (parent)
chain: VCCCELGVNPDQVEKIRKLPNTLL
B2: SNX8 (parent)
chain: RMVPALPPKRMLGADREFIEARRR

Variants of: B1
Assay: protein stability index of a GFP-peptide fusion (GPS, HEK-293T) (PSI 1-6); higher = more stable
Details: c terminus: a fixed tail appended
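Further: lentivirally expressed fusions sorted by FACS into six bins by GFP to DsRed ratio, PSI derived from sequencing read proportions per bin multiplied by bin number.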

Protein stability index: each site, then its substitutions
I16: L 1.56 | H 1.98 | Q 2.32 | M 1.67 | K 2.53 | S 2.08 | E 3.09 | N 3.14 | Y 1.51 | C 2.22 | W 2.13
N21: L 1.94 | R 1.34 | T 2.04 | G 1.45 | C 2.21 | D 2.43 | Y 2.47 | V 1.83 | A 1.7 | H 1.83 | W 1.32 | Q 1.74 | P 1.83 | M 1.84 | E 2.02 | K 3.13
L24: C 2.12 | G 2.56 | R 1.38 | F 2.04 | N 2.61 | I 1.95 | V 1.96 | D 3.15 | S 2.49 | E 2.62 | H 2.02 | P 2.12 | M 1.8 | Q 2.48
D11: A 1.79 | R 2.63 | S 1.9 | V 1.46 | H 1.26 | L 1.91 | N 1.42 | C 2.01 | G 2.17 | F 1.49 | M 2.41 | T 1.69 | W 1.98 | I 1.93 | E 2.18
C2: D 3.2 | T 2.72 | S 2.76 | F 1.9 | H 2.65 | P 3.22 | Y 2.6 | M 2.4 | A 2.85 | K 2.63
E14: Y 2.09 | T 1.68 | N 1.91 | G 1.89 | A 2.3 | W 2.21 | P 2.95 | V 1.45 | S 1.45 | C 1.71 | R 1.05 | D 1.66
C4: Q 2.72 | W 1.98 | K 2.22 | I 2.28 | M 2.16 | A 1.87 | L 1.73 | D 3.17 | F 1.83 | Y 1.85
K15: Y 2.09 | I 1.39 | D 2.17 | P 2.07 | S 2.34 | R 2.21 | T 1.66 | L 2.34 | N 1.94 | C 1.33 | Q 2.23
V13: E 2.78 | T 1.76 | K 2.25 | I 1.75 | Q 2.42 | H 1.77 | S 2.05 | Y 1.84
L6: T 2.13 | Y 1.87 | W 1.66 | F 1.4 | K 3.1 | Q 3.27 | C 2.06 | N 2.47 | E 2.76 | D 3.28 | H 2.15 | R 2.3 | G 2.87 | M 2.3 | S 2.68 | V 2.2 | A 2
P10: Q 2.02 | E 2.11 | K 2.02 | L 2.17 | H 2 | R 2.35 | M 1.55 | W 1.88 | N 2 | S 1.89 | A 2.14 | D 2.2
L23: D 2.31 | R 1.66 | T 2.33 | V 2.25 | M 1.89 | G 2.51 | H 2.67 | P 2.75 | Q 2.35 | S 2.25 | F 1.51 | N 2.05 | I 1.6 | C 1.71 | E 3.05 | K 2.36
L19: G 3.13 | P 1.91 | D 2.9 | R 2.5 | T 2.33 | Q 2.5 | A 2.12 | K 2.48 | Y 1.76 | I 2.25 | E 2.73 | C 2.34
G7: L 2.3 | M 1.7 | D 1.96 | E 2.13 | S 1.72 | C 2.6 | T 2.85 | N 1.43 | K 2.42 | H 2.45 | W 1.51 | R 1.78 | Y 1.88 | P 1.76
T22: R 2.02 | G 1.51 | D 2.5 | Y 1.63 | F 2.2 | S 1.79 | N 1.71 | E 2.64 | M 2.1 | Q 1.63 | I 2.06 | C 1.72 | A 2.09
Q12: K 1.76 | Y 1.21 | H 1.42 | L 2.52 | M 2.03 | D 2.29 | A 2.09 | T 1.76 | P 1.86 | C 2.06 | E 2.16 | G 2.07 | S 2.3 | W 2.29 | F 2.14 | R 1.67
C3: V 2.53 | Y 2.27 | P 1.97 | F 1.24 | I 1.69 | Q 1.96 | G 2.19 | L 2.03 | N 1.82
P20: E 1.4 | Y 2.23 | T 2.2 | D 1.48 | G 2.08 | Q 1.87 | R 1.91 | N 2.3 | I 1.38 | L 2.02 | V 1.82
E5: C 1.1 | K 2.22 | V 1.18 | F 3.32 | R 1.47 | D 1.89 | Q 1.71 | H 2.82 | L 2.28 | Y 2.68 | P 2.17 | M 1.32
N9: W 2.8 | T 1.68 | K 2.33 | I 1.88 | P 2 | Y 1.78 | S 2.3 | G 1.96 | A 1.47 | M 2.23 | H 1.83 | V 1.75 | R 1.92
R17: D 2.21 | A 1.81 | F 1.92 | H 2.23 | G 1.45 | I 3.09 | Y 1.92 | V 1.82 | L 1.78 | W 1.74 | T 1.47 | E 2.31 | C 1.46 | N 1.67 | S 1.94
K18: G 1.53 | A 1.26 | S 2.08 | Q 1.54 | H 2.95 | L 1.72 | P 1.59 | M 1.68 | D 2.08
V8: R 1.81 | K 2.2 | S 2.4 | H 2.17 | D 2.37 | T 1.62 | A 1.86 | W 1.58 | C 1.86 | G 2.33 | I 1.79 | F 1.3
V1: T 1.71 | A 1.66 | E 2.83 | I 1.2 | M 2 | R 1.99 | Q 2.19 | P 1.41 | G 1.68 | W 1.79 | D 3.1

Variants of: B2
Assay: as above
Details: c terminus: a fixed tail appended

Protein stability index: each site, then its substitutions
R1: A 3.86 | C 3.28 | D 2.87 | E 3.56 | F 2.22 | G 3.77 | H 2.3 | I 3.21 | K 3.74 | L 1.96 | M 2.88 | N 2.71 | P 3.83 | Q 3.54 | S 3.8 | T 2.69 | V 3.18 | W 1.94 | Y 1.81
M2: A 3.94 | C 3.22 | D 4.17 | E 4.52 | F 3.44 | G 3.83 | H 4.04 | I 3.01 | K 4.1 | L 2.76 | N 3.99 | P 4.53 | Q 4.57 | R 3.94 | S 4.46 | T 4.08
